From US20250215100A1 (HARBOUR BIOMED SHANGHAI, published 2025)

Key:
human CD40 on cells [1] = biological target: T1, human CD40 on cells (human, UniProt P25942 21-277); test: FACS, CHO-K1/hCD40 cells
T1 construct: whole, on cells; The cell line used is named in each row's assay; also called hCD40; TNFRSF5
Description: (§1) Flow cytometry (FACS) was used to detect the binding ability of the CD40 antibody to cells, such as, CHO-K1/hCD40 highly expressing human CD40 (constructed by Beijing Kyinno Biotechnology), CHO-K1/cyCD40 highly expressing cynomolgus monkey CD40 (constructed by Beijing Kyinno Biotechnology) and lymphoma cell highly expressing human CD40, Raji (ATCC, #CCL-86). Specifically, the cells were digested and resuspended with complete medium (F-12K for CHO-K1 cells; and RPMI-1640 for Raji cells); and the cells were adjusted to a cell density of 1×10⁶ cells/mL. The cells were seeded in a 96-well V-bottom plate (Corning, #3894) at 100 μL/well, and the antigen binding protein to be tested at 2x final concentration was then added at 100 μL/well and mixed evenly, with the highest final concentration of the antigen binding protein of 300 nM, a total of 8 concentrations, and 5-fold concentration gradient dilution. hIgG (Crownbio, #C0002) was used as a negative control, and the positive control molecule was the molecule in Table 1-5. The cells were incubated at 4° C. for 1 hours in the dark. After the incubation, the cells were rinsed twice by adding pre-chilled PBS at 100 μL/well, and centrifuged at 500 g at 4° C. for 5 minutes, and the supernatant was discarded. Then, a fluorescent secondary antibody (goat anti-human IgG (H+L) secondary antibody, Alexa Fluor® 488 conjugate, Invitrogen, #A11013, 1:1000 dilution) was added at 100 µL/well, and the cells were incubated at 4° C. for 30 minutes in the dark. The cells were washed twice with pre-chilled PBS at 200 μL/well, and centrifuged at 500 g at 4° C. for 5 minutes, and the supernatant was discarded. Finally, the cells were resuspended in pre-chilled PBS at 200 μL/well. The fluorescence signal values were read using a BD FACS CANTOII flow cytometer or ACEA NovoCyte flow cytometer, and the data were processed and analyzed using FlowJo v10 software (FlowJo, LLC).
(§2) Data processing and graphical analysis were performed using GraphPad Prism 8 software. The binding curve of the antibody to the target cell and parameters, such as EC50 value were obtained by four-parameter nonlinear fitting.

[2] = biological target: T2, cynomolgus monkey CD40 on cells (cynomolgus monkey, UniProt G7PG38 21-278); test: FACS, CHO-K1/cyCD40 cells
T2 construct: also called cyCD40; CHO-K1/cyCD40
T2 sequence (G7PG38 entry or part of it limits assumed): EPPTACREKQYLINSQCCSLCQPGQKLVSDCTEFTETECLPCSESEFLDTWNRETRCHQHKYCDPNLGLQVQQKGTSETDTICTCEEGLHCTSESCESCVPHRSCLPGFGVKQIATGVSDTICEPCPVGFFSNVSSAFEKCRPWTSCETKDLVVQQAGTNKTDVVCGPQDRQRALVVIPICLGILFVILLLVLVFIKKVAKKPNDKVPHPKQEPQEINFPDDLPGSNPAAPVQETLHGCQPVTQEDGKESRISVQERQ
Description: as §1, §2

human CD40 on cells [3] = biological target: T1, human CD40 on cells; test: FACS, Raji cells
Description: as §1, §2

T1 sequence (P25942 21-277): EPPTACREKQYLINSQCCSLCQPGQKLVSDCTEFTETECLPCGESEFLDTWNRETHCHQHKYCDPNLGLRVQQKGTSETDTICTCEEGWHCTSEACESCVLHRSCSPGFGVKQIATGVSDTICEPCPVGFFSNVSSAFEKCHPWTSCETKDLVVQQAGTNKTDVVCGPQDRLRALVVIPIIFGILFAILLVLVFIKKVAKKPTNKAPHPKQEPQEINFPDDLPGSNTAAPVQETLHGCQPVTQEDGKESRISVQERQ

Binder | EC50 (human CD40 on cells [1]) | Maximum MFI (human CD40 on cells [1]) | EC50 [2] | Maximum MFI [2] | EC50 (human CD40 on cells [3]) | Maximum MFI (human CD40 on cells [3])
PR001303 (APX005) (antibody, human IgG1, kappa, CD40 positive control antibody) heavy: not shown light: DIQMTQSPSSLSASVGDRVTIKCQASQSISSRLAWYQQKPGKPPKLLIYRASTLASGVPSRFSGSGSGTDFTLTISSLQPEDVATYYCQCTGYGISWPIGGGTKVEIKRTVAAPSVFIFPPSDEQLKSGTASVVCLLNNFYPREAKVQWKVDNALQSGNSQESVTEQDSKDSTYSLSSTLTLSKADYEKHKVYACEVTHQGLSSPVTKSFNRGEC | 2.83 nM | 26000 MFI | 4.72 nM | 93600 MFI | 0.0347 nM | 2790 MFI
PR006492 (antibody, human IgG1, kappa, V domains shown, PR003379 variant L:N92E; human IgG1 L234A, L235A, G237A) VH: QVQLVQSGAEVKKPGASVKVSCKASGYTFAGYYMYWVRQAPGQGLEWMGWINPDSGAPTYAQKFQGRVTMTRDTSISTAYMELSRLRSDDTAVYYCAREKIYYGSGNYYPSFDYWGQGTLVTVSS VL: DIQLTQSPSFLSASVGDRVTITCRASQGISSYLAWYQQKPGKAPKLLIYAASTLQSGVPSRFSGSGSGTEFTLTISSLQPEDFATYYCQQLESYPWTFGQGTKVEIKR | 8.87 nM | 92300 MFI | 6.26 nM | 52200 MFI | 0.418 nM | 9070 MFI
PR006505 (antibody, human IgG1, kappa, V domains shown, PR003379 variant L:S93I; human IgG1 L234A, L235A, G237A) VH: QVQLVQSGAEVKKPGASVKVSCKASGYTFAGYYMYWVRQAPGQGLEWMGWINPDSGAPTYAQKFQGRVTMTRDTSISTAYMELSRLRSDDTAVYYCAREKIYYGSGNYYPSFDYWGQGTLVTVSS VL: DIQLTQSPSFLSASVGDRVTITCRASQGISSYLAWYQQKPGKAPKLLIYAASTLQSGVPSRFSGSGSGTEFTLTISSLQPEDFATYYCQQLNIYPWTFGQGTKVEIKR | 6.08 nM | 82700 MFI | 4.62 nM | 48100 MFI | 0.336 nM | 11900 MFI
PR006506 (antibody, human IgG1, kappa, V domains shown, PR003379 variant L:S93F; human IgG1 L234A, L235A, G237A) VH: QVQLVQSGAEVKKPGASVKVSCKASGYTFAGYYMYWVRQAPGQGLEWMGWINPDSGAPTYAQKFQGRVTMTRDTSISTAYMELSRLRSDDTAVYYCAREKIYYGSGNYYPSFDYWGQGTLVTVSS VL: DIQLTQSPSFLSASVGDRVTITCRASQGISSYLAWYQQKPGKAPKLLIYAASTLQSGVPSRFSGSGSGTEFTLTISSLQPEDFATYYCQQLNFYPWTFGQGTKVEIKR | 5.85 nM | 82800 MFI | 4.5 nM | 47300 MFI | 0.388 nM | 12100 MFI
PR006516 (antibody, human IgG1, kappa, V domains shown, PR003379 variant L:S93H; human IgG1 L234A, L235A, G237A) VH: QVQLVQSGAEVKKPGASVKVSCKASGYTFAGYYMYWVRQAPGQGLEWMGWINPDSGAPTYAQKFQGRVTMTRDTSISTAYMELSRLRSDDTAVYYCAREKIYYGSGNYYPSFDYWGQGTLVTVSS VL: DIQLTQSPSFLSASVGDRVTITCRASQGISSYLAWYQQKPGKAPKLLIYAASTLQSGVPSRFSGSGSGTEFTLTISSLQPEDFATYYCQQLNHYPWTFGQGTKVEIKR | 5.08 nM | 86100 MFI | 5.29 nM | 51400 MFI | 0.351 nM | 8900 MFI
PR006512 (antibody, human IgG1, kappa, V domains shown, PR003379 variant L:S93T; human IgG1 L234A, L235A, G237A) VH: QVQLVQSGAEVKKPGASVKVSCKASGYTFAGYYMYWVRQAPGQGLEWMGWINPDSGAPTYAQKFQGRVTMTRDTSISTAYMELSRLRSDDTAVYYCAREKIYYGSGNYYPSFDYWGQGTLVTVSS VL: DIQLTQSPSFLSASVGDRVTITCRASQGISSYLAWYQQKPGKAPKLLIYAASTLQSGVPSRFSGSGSGTEFTLTISSLQPEDFATYYCQQLNTYPWTFGQGTKVEIKR | 5.18 nM | 81600 MFI | 4.55 nM | 45800 MFI | 0.424 nM | 12100 MFI
PR006501 (antibody, human IgG1, kappa, V domains shown, PR003379 variant L:N92Q; human IgG1 L234A, L235A, G237A) VH: QVQLVQSGAEVKKPGASVKVSCKASGYTFAGYYMYWVRQAPGQGLEWMGWINPDSGAPTYAQKFQGRVTMTRDTSISTAYMELSRLRSDDTAVYYCAREKIYYGSGNYYPSFDYWGQGTLVTVSS VL: DIQLTQSPSFLSASVGDRVTITCRASQGISSYLAWYQQKPGKAPKLLIYAASTLQSGVPSRFSGSGSGTEFTLTISSLQPEDFATYYCQQLQSYPWTFGQGTKVEIKR | 5.29 nM | 91000 MFI | 4.19 nM | 48200 MFI | 0.352 nM | 9000 MFI
PR006513 (antibody, human IgG1, kappa, V domains shown, PR003379 variant L:S93Q; human IgG1 L234A, L235A, G237A) VH: QVQLVQSGAEVKKPGASVKVSCKASGYTFAGYYMYWVRQAPGQGLEWMGWINPDSGAPTYAQKFQGRVTMTRDTSISTAYMELSRLRSDDTAVYYCAREKIYYGSGNYYPSFDYWGQGTLVTVSS VL: DIQLTQSPSFLSASVGDRVTITCRASQGISSYLAWYQQKPGKAPKLLIYAASTLQSGVPSRFSGSGSGTEFTLTISSLQPEDFATYYCQQLNQYPWTFGQGTKVEIKR | 7.51 nM | 89200 MFI | 3.56 nM | 40200 MFI | 0.373 nM | 12000 MFI
PR006494 (antibody, human IgG1, kappa, V domains shown, PR003379 variant L:N92T; human IgG1 L234A, L235A, G237A) VH: QVQLVQSGAEVKKPGASVKVSCKASGYTFAGYYMYWVRQAPGQGLEWMGWINPDSGAPTYAQKFQGRVTMTRDTSISTAYMELSRLRSDDTAVYYCAREKIYYGSGNYYPSFDYWGQGTLVTVSS VL: DIQLTQSPSFLSASVGDRVTITCRASQGISSYLAWYQQKPGKAPKLLIYAASTLQSGVPSRFSGSGSGTEFTLTISSLQPEDFATYYCQQLTSYPWTFGQGTKVEIKR | 8.73 nM | 98800 MFI | 4.04 nM | 49600 MFI | 0.328 nM | 9180 MFI
PR006493 (antibody, human IgG1, kappa, V domains shown, PR003379 variant L:N92L; human IgG1 L234A, L235A, G237A) VH: QVQLVQSGAEVKKPGASVKVSCKASGYTFAGYYMYWVRQAPGQGLEWMGWINPDSGAPTYAQKFQGRVTMTRDTSISTAYMELSRLRSDDTAVYYCAREKIYYGSGNYYPSFDYWGQGTLVTVSS VL: DIQLTQSPSFLSASVGDRVTITCRASQGISSYLAWYQQKPGKAPKLLIYAASTLQSGVPSRFSGSGSGTEFTLTISSLQPEDFATYYCQQLLSYPWTFGQGTKVEIKR | 5.26 nM | 83400 MFI | 4.06 nM | 48900 MFI | 0.377 nM | 9350 MFI
PR006509 (antibody, human IgG1, kappa, V domains shown, PR003379 variant L:S93L; human IgG1 L234A, L235A, G237A) VH: QVQLVQSGAEVKKPGASVKVSCKASGYTFAGYYMYWVRQAPGQGLEWMGWINPDSGAPTYAQKFQGRVTMTRDTSISTAYMELSRLRSDDTAVYYCAREKIYYGSGNYYPSFDYWGQGTLVTVSS VL: DIQLTQSPSFLSASVGDRVTITCRASQGISSYLAWYQQKPGKAPKLLIYAASTLQSGVPSRFSGSGSGTEFTLTISSLQPEDFATYYCQQLNLYPWTFGQGTKVEIKR | 5.51 nM | 79600 MFI | 4.69 nM | 45300 MFI | 0.371 nM | 12200 MFI
PR006503 (antibody, human IgG1, kappa, V domains shown, PR003379 variant L:N92G; human IgG1 L234A, L235A, G237A) VH: QVQLVQSGAEVKKPGASVKVSCKASGYTFAGYYMYWVRQAPGQGLEWMGWINPDSGAPTYAQKFQGRVTMTRDTSISTAYMELSRLRSDDTAVYYCAREKIYYGSGNYYPSFDYWGQGTLVTVSS VL: DIQLTQSPSFLSASVGDRVTITCRASQGISSYLAWYQQKPGKAPKLLIYAASTLQSGVPSRFSGSGSGTEFTLTISSLQPEDFATYYCQQLGSYPWTFGQGTKVEIKR | 6.07 nM | 84500 MFI | 3.99 nM | 49600 MFI | 0.333 nM | 12200 MFI
PR006514 (antibody, human IgG1, kappa, V domains shown, PR003379 variant L:S93V; human IgG1 L234A, L235A, G237A) VH: QVQLVQSGAEVKKPGASVKVSCKASGYTFAGYYMYWVRQAPGQGLEWMGWINPDSGAPTYAQKFQGRVTMTRDTSISTAYMELSRLRSDDTAVYYCAREKIYYGSGNYYPSFDYWGQGTLVTVSS VL: DIQLTQSPSFLSASVGDRVTITCRASQGISSYLAWYQQKPGKAPKLLIYAASTLQSGVPSRFSGSGSGTEFTLTISSLQPEDFATYYCQQLNVYPWTFGQGTKVEIKR | 5.08 nM | 86900 MFI | 4.23 nM | 45100 MFI | 0.455 nM | 12000 MFI
PR006507 (antibody, human IgG1, kappa, V domains shown, PR003379 variant L:S93E; human IgG1 L234A, L235A, G237A) VH: QVQLVQSGAEVKKPGASVKVSCKASGYTFAGYYMYWVRQAPGQGLEWMGWINPDSGAPTYAQKFQGRVTMTRDTSISTAYMELSRLRSDDTAVYYCAREKIYYGSGNYYPSFDYWGQGTLVTVSS VL: DIQLTQSPSFLSASVGDRVTITCRASQGISSYLAWYQQKPGKAPKLLIYAASTLQSGVPSRFSGSGSGTEFTLTISSLQPEDFATYYCQQLNEYPWTFGQGTKVEIKR | 5.58 nM | 81800 MFI | 5.01 nM | 49300 MFI | 0.384 nM | 12300 MFI
